The term Kd denotes the equilibrium constant for the complex coming apart. A word on the stoichiometry N: it is a count of units in the complex or per binding partner. As usually defined, the KD is the free concentration of one partner at which half of the binding sites on the other are occupied at equilibrium, for simple one-to-one binding. High values mean weaker binding, low ones tighter binding.

These results are taken from publication doi:10.1101/2021.03.29.437455.

The target in assay [1] is GST-EBNA2 446-474 S457A/T465V (Epstein-Barr virus) (UniProt P12978). Briefly: pull-down. The following applies: remark: other sources report otherwise.
The target of assay [2] is PLK1 polo-box domain (PBD), PLK1 residue 345-603 (UniProt P53350). Briefly: ITC. (ITC needs no label: the signal is the heat of the interaction.)
In assay [3] the target is polo-like kinase 1 (PLK1) PBD, 345-603 (UniProt P53350). Briefly: isothermal titration calorimetry. The following applies: reference: unphosphorylated peptide PNTSSPS; sites S379.

In the case of “histone acetylase and co-activator p300, Q09472 1-2414”, in assay [1], the fold change of p300 binding against wt is 8 to 9 fold.

Consider EBNA2 phospho-heptapeptide PNTSpSPS, for which, in assay [2], the dissociation constant Kd came to 8.19 µM and the stoichiometry N worked out at 1.

In assay [3], “EBNA2 (EBV nuclear antigen 2) (from UniProt P12978) phosphopeptide PNTSpSPS” returned a KD of 8.19 µM.
